Experimental data as given in article PMC3167817, “A Neutralizing RNA Aptamer against EGFR Causes Selective Apoptotic Cell Death”.

How the values were obtained:
[1] = biological target: EC-EGFR (soluble extracellular domain), disulfide-linked homodimer (human, UniProt P00533 25-645); test: filter binding; Filter binding: 1 nM radiolabeled RNA, PBS + 0.01% BSA, 15 min, 37 C (5 mM DTT for monomer); CL4sc background subtracted; pull-down: 200 nM aptamer on A549 cells 30 min RT, lysis in 10 mM Tris-HCl pH 7.5, 200 mM NaCl, 5 mM EDTA, 0.1% Triton X-100; conditions: protein: commercial, chain copies: 2
[2] = biological target: EC-ErbB3 (soluble extracellular domain), disulfide-linked homodimer (human, UniProt P21860 20-643); test: filter binding; 20 and 40 nM protein; Filter binding: 1 nM radiolabeled RNA, PBS + 0.01% BSA, 15 min, 37 C (5 mM DTT for monomer); CL4sc background subtracted; pull-down: 200 nM aptamer on A549 cells 30 min RT, lysis in 10 mM Tris-HCl pH 7.5, 200 mM NaCl, 5 mM EDTA, 0.1% Triton X-100; conditions: protein: commercial, chain copies: 2
EC-ErbB3 (soluble extracellular domain), disulfide-linked homodimer, sequence (P21860 20-643): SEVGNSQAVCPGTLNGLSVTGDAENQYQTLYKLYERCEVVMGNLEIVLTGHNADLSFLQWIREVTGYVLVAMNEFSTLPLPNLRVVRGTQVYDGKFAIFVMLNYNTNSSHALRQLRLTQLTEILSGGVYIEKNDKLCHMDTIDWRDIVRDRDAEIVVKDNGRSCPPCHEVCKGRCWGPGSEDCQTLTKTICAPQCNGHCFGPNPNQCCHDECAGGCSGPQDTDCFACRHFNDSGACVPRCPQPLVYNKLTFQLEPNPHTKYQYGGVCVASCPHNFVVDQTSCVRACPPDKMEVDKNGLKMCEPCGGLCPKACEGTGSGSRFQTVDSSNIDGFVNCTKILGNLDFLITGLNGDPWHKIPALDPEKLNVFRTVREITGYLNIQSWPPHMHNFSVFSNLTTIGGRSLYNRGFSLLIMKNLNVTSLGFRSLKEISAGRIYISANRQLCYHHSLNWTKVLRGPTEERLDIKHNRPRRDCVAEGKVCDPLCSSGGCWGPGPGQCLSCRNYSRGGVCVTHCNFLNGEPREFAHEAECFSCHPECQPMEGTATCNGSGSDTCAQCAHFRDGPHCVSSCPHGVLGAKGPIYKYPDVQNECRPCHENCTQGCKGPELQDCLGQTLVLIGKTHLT

GCCUUAGUAACGUGCUUUGAUGUCGAUUCGACAGGAGGC (structured_RNA, 2'-fluoro pyrimidines) [CL4]
Kd [1]: 10 nM
binding result [2]: no binding
